# According to the RNAGym collection of RNA variant scans (doi:10.7554/elife.80360):
# B1: Twister Ribozyme (parent)
# chain: AACACUGCCAAUGCCGGUCCCAAGCCCGGAUAAAAGUGGAGGGGGCGG
# Variants of: B1
# Assay: self-cleavage, relative activity (ratio to wild type); higher = more cleavage; co-transcriptional
row,Variant,self-cleavage
1,A2C A34U,0.0746
2,A2C A34C,0.108
3,A2C C27G,0.0549
4,A2C C27U,0.0597
5,A1U G47C,0.068
6,A1U G24C,0.0779
7,A1U G24U,0.0764
8,A2C G36C,0.0351
9,A1U C9U,0.0321
10,A2G A33C,0.503
11,A2G A33U,0.401
12,A2G A33G,0.442
13,A2C C9G,0.0449
14,A2C C9A,0.0489
15,A2C G44U,0.0787
16,A2C G44A,0.107
17,A2G A32C,0.414
18,A2G A32G,0.317
19,A2G A32U,0.401
20,A2G A11G,0.164
21,A2C C26A,0.0536
22,A2C C26U,0.0792
23,A2C A40G,0.059
24,A2C A40U,0.0387

row,Variant,self-cleavage
1,A2C A40C,0.07
2,A2C G28C,0.0792
3,A2C G28U,0.0994
4,A2C A23U,0.0734
5,A2C A23G,0.06
6,A2G C19A,0.0723
7,A2C A30G,0.105
8,A2C A30U,0.0662
9,A2C C15A,0.051
10,A2C C15G,0.0398
11,A2G G7C,0.087
12,A2G G7A,0.07
13,A2C A35U,0.0477
14,A1U C19U,0.0395
15,A1U C19G,0.0665
16,A1U C19A,0.0579
17,A1U C25U,0.0883
18,A1U C25G,0.0576
19,A1U G13A,0.0679
20,A1U G13U,0.0563
21,A1U G13C,0.0521
22,A2G C3U,0.0609
23,A2C A10G,0.151
24,A2G C25U,0.128

row,Variant,self-cleavage
1,A2C U37C,0.0354
2,A2C U37A,0.0604
3,A1U G41C,0.0395
4,A1U G41A,0.0475
5,A1U G41U,0.0585
6,A2C U12G,0.0824
7,A2G G36C,0.105
8,A2C G7A,0.0438
9,A2C G7C,0.0586
10,A2C C21A,0.0892
11,A1U G44A,0.0502
12,A1U G39U,0.0746
13,A1U G28A,0.0517
14,A1U C46A,0.0731
15,A1U C46G,0.0557
16,A2G G17U,0.0694
17,A2C G24U,0.0478
18,A2C G24C,0.0423
19,A2G C14G,0.136
20,A2G C14U,0.275
21,A2C A11C,0.0419
22,A2C A11U,0.108
23,A2C G16A,0.116
24,A2G C9G,0.0579

row,Variant,self-cleavage
1,A2G A4C,0.0432
2,A2G A4U,0.117
3,A2C G47C,0.0493
4,A2C G47A,0.0858
5,A2C G47U,0.0503
6,A1U C15U,0.0337
7,A2G C46U,0.416
8,A2C U6C,0.0549
9,A2C G39C,0.105
10,A2C G39A,0.0656
11,A2G A40C,0.138
12,A2G A40U,0.107
13,A2G A40G,0.0967
14,A2C A32G,0.0723
15,A2C A32C,0.1
16,A2C A32U,0.101
17,A1U C21A,0.0801
18,A2C C25G,0.0416
19,A2C C25U,0.0669
20,A1U G38A,0.0686
21,A1U G38C,0.0576
22,A2G C20G,0.0997
23,A2G C20U,0.115
24,A2G C20A,0.0649

row,Variant,self-cleavage
1,A2G C5U,0.153
2,A2G C5G,0.144
3,A2G C5A,0.0588
4,A1U G36U,0.0701
5,A1U G36C,0.0449
6,A2G A22C,0.129
7,A2G A22U,0.133
8,A2G A22G,0.107
9,A1U C27G,0.0626
10,A1U C27U,0.0591
11,A2C C5A,0.0506
12,A2C C5G,0.0784
13,A2C G13A,0.0468
14,A2C U31C,0.0894
15,A2C U31A,0.0563
16,A1U G45A,0.0481
17,A2G A30G,0.399
18,A2G A10C,0.322
19,A2G A10G,0.312
20,A2C G17C,0.0357
21,A2G A35C,0.308
22,A1U G16C,0.0739
23,A1U G16A,0.0911
24,A1U C26A,0.086

row,Variant,self-cleavage
1,A2G G28C,0.241
2,A2G G28U,0.286
3,A2C C14G,0.0512
4,A2C C14A,0.0856
5,A2G C21A,0.0688
6,A2G C21G,0.215
7,A1U G42C,0.0572
8,A1U U6G,0.107
9,A1U U6A,0.0513
10,A1U U6C,0.0726
11,A2C G48U,0.0976
12,A2C G48A,0.0475
13,A1U G17A,0.0711
14,A2C C19U,0.0609
15,A2C C3U,0.0628
16,A2C C3A,0.101
17,A2G G24U,0.0773
18,A2G G29C,0.188
19,A2G G29U,0.344
20,A2G G29A,0.214
21,A2C G29A,0.0998
22,A2C G29C,0.0975
23,A2C G29U,0.0781
24,A1U C20G,0.112

row,Variant,self-cleavage
1,A1U C20U,0.0599
2,A1U G43U,0.0499
3,A1U G43A,0.0467
4,A2C G45U,0.0774
5,A1U G7A,0.0601
6,A1U G7U,0.059
7,A2G C27U,0.218
8,A2G C27G,0.138
9,A1U U37C,0.0822
10,A1U U31C,0.0703
11,A2G G16A,0.208
12,A2G G16U,0.301
13,A1U C14U,0.08
14,A1U G29C,0.0876
15,A1U G29U,0.0849
16,A2G A34U,0.166
17,A2C C8A,0.0745
18,A2C C8U,0.0384
19,A2C G38C,0.0461
20,A2C G38A,0.102
21,A2C G38U,0.0613
22,A2C C20U,0.0643
23,A2C C20A,0.0642
